PMC7289600, “Signaling diversity enabled by Rap1-regulated plasma membrane ERK with distinct temporal dynamics” (eLife, 2020)

T1: Rap1-binding domain (RBD) from RalGDS fused to the acceptor fluorophore Ypet (second chain of Rap1A/B-FLARE) (UniProt Q12967 798-885)
T1 construct: also called RalGDS RBD; source: PC12 cells, transfected (Lipofectamine 2000), in living cells
T1 sequence (looked up): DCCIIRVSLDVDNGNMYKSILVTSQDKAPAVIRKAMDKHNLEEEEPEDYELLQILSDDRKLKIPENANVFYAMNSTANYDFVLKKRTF


Target: T1, Rap1-binding domain (RBD) from RalGDS …
Experiment: FRET or BRET; dual-chain Rap1A/B-FLARE biosensors expressed in living PC12 cells; EGF added at time 0; yellow over cyan (Y/C) emission ratio imaging in HBSS at 37°C; increase abrogated by co-expression of Rap1GAP or by GGTI-298
Conditions: partners not purified

| increase in Y/C emission ratio (FRET) after EGF [%] | Binder |
| --- | --- |
| 25.4 | Rap1A fused to the donor fluorophore mCerulean3 (Rap1A chain of the dual-chain biosensor Rap1A-FLARE) (natural protein, UniProt P62834 1-184, looked up, Rap1A, GTPase of the Ras family; plasmid provided by Klaus Hahn; source: PC12 cells, transfected (Lipofectamine 2000), in living cells; not shown: mCerulean3, N-terminal, kept) MREYKLVVLGSGGVGKSALTVQFVQGIFVEKYDPTIEDSYRKQVEVDCQQCMLEILDTAGTEQFTAMRDLYMKNGQGFALVYSITAQSTFNDLQDLREQILRVKDTEDVPMILVGNKCDLEDERVVGKEQGQNLARQWCNCAFLESSAKSKINVNEIFYDLVRQINRKTPVEKKKPKKKSCLLL |
| 26 | Rap1B fused to the donor fluorophore mCerulean3 (Rap1B chain of the dual-chain biosensor Rap1B-FLARE) (natural protein, UniProt P61224 1-184, looked up, Rap1B, GTPase of the Ras family; plasmid provided by Klaus Hahn; source: PC12 cells, transfected (Lipofectamine 2000), in living cells; not shown: mCerulean3, N-terminal, kept) MREYKLVVLGSGGVGKSALTVQFVQGIFVEKYDPTIEDSYRKQVEVDAQQCMLEILDTAGTEQFTAMRDLYMKNGQGFALVYSITAQSTFNDLQDLREQILRVKDTDDVPMILVGNKCDLEDERVVGKEQGQNLARQWNNCAFLESSAKSKINVNEIFYDLVRQINRKTPVPGKARKKSSCQLL |
